Assay results published in the RNAGym collection of RNA variant scans (doi:10.7554/elife.90254).

B1: OR4K15 (parent)
chain: GUUAACGGUCAUAGGCCAUGGAAACUAGGAGCACCAUUUCGCUGCCAGUGAAGAAAUGAACAAAGAAAAUCUGGGCCAGGCAGGCAUCAAAAGAAAUAGUCUUGCGCUCAACCAGAAAGUCUGUAAUCAUUUUAAGGGUA

Variants of: B1
Experiment: self-cleavage, relative activity (ratio to wild type); higher = more cleavage; in vitro, sequencing; the parent is a self-cleaving ribozyme

Row | Variant | self-cleavage
1 | GUUAACGGUCAUAGGCCAUGGAAACUAGGAGCACCAUUUCGCUGCCAGUGAAGAAAUGAACAAAGAAAAUCUGGGCCAGGCAGGCAUCAAACGAAAUAGUCUCGCGCUCAACCAGAAAGUCUGUAAUCAUUUUAAGGGUA [A92C U103C] | 0.93
2 | GUUAACGGUCAUAGGCCAUGGAAACUAGGAGCACCAUUUCGCUGCCAGUGAAGAAAUGAACAAAGAAAAUCUGGGCCAGGCAGGCAUCAAACGAAAUAGUCUUGCGCUCAACCAGAAAGUCUGCAAUCAUUUUAAGGGUA [A92C U124C] | 0.52
3 | GUUAACGGUCAUAGGCCAUGGAAACUAGGAGCACCAUUUCGCUGCCAGUGAAGAAAUGAACAAAGAAAAUCUGGGCCAGGCAGGCAUCAAAGGAUAUAGUCUUGCGCUCAACCAGAAAGUCUGUAAUCAUUUUAAGGGUA [A92G A95U] | 1.8
4 | GUUAACGGUCAUAGGCCAUGGAAACUAGGAGCACCAUUUCGCUGCCAGUGAAGAAAUGAACAAAGAAAAUCUGGGCCAGGCAGGCAUCAAACGAAAUAGUCUUGCGCUCAGCCAGAAAGUCUGUAAUCAUUUUAAGGGUA [A92C A111G] | 0.03
5 | GUUAACGGUCAUAGGCCAUGGAAACUAGGAGCACCAUUUCGCUGCCAGUGAAGAAAUGAACAAAGAAAAUCUGGGCCAGGCAGGCAUCAAAGGAAAUAGUCUUGCGCUCAACCAGAAAGUCUGUAAUCAUUUUUAGGGUA [A92G A134U] | 2.03
6 | GUUAACGGUCAUAGGCCAUGGAAACUAGGAGCACCAUUUCGCUGCCAGUGAAGAAAUGAACAAAGAAAAUCUGGGCCAGGCAGGCAUCAAAGGAAAUAGUCUUGCGCUCAACCAGAAAGUCUGUAAUCAUUUUAAGAGUA [A92G G137A] | 1.34
7 | GUUAACGGUCAUAGGCCAUGGAAACUAGGAGCACCAUUUCGCUGCCAGUGAAGAAAUGAACAAAGAAAAUCUGGGCCAGGCAGGCAUCAAAGGAAAUAGUCUGGCGCUCAACCAGAAAGUCUGUAAUCAUUUUAAGGGUA [A92G U103G] | 0.03
8 | GUUAACGGUCAUAGGCCAUGGAAACUAGGAGCACCAUUUCGCUGCCAGUGAAGAAAUGAACAAAGAAAAUCUGGGCCAGGCAGGCAUCAAAGGAAAUAGUCUCGCGCUCAACCAGAAAGUCUGUAAUCAUUUUAAGGGUA [A92G U103C] | 0.6
9 | GUUAACGGUCAUAGGCCAUGGAAACUAGGAGCACCAUUUCGCUGCCAGUGAAGAAAUGAACAAAGAAAAUCUGGGCCAGGCAGGCAUCAAAGGAAAUAGUCUUGCGCUCAACAAGAAAGUCUGUAAUCAUUUUAAGGGUA [A92G C113A] | 0.01
10 | GUUAACGGUCAUAGGCCAUGGAAACUAGGAGCACCAUUUCGCUGCCAGUGAAGAAAUGAACAAAGAAAAUCUGGGCCAGGCAGGCAUCAAAGGAAAUAGUCUUGCGCUCAACCAGAAAGUCUGUAACCAUUUUAAGGGUA [A92G U127C] | 0.9
11 | GUUAACGGUCAUAGGCCAUGGAAACUAGGAGCACCAUUUCGCUGCCAGUGAAGAAAUGAACAAAGAAAAUCUGGGCCAGGCAGGCAUCAAAGGAAAUAGUCUUGCGCUCAACCAGAAGGUCUGUAAUCAUUUUAAGGGUA [A92G A118G] | 1.26
12 | GUUAACGGUCAUAGGCCAUGGAAACUAGGAGCACCAUUUCGCUGCCAGUGAAGAAAUGAACAAAGAAAAUCUGGGCCAGGCAGGCAUCAAAGGGAAUAGUCUUGCGCUCAACCAGAAAGUCUGUAAUCAUUUUAAGGGUA [A92G A94G] | 1.49
13 | GUUAACGGUCAUAGGCCAUGGAAACUAGGAGCACCAUUUCGCUGCCAGUGAAGAAAUGAACAAAGAAAAUCUGGGCCAGGCAGGCAUCAAAGGAAAUAGUCUUGCGCUCGACCAGAAAGUCUGUAAUCAUUUUAAGGGUA [A92G A110G] | 0.17
14 | GUUAACGGUCAUAGGCCAUGGAAACUAGGAGCACCAUUUCGCUGCCAGUGAAGAAAUGAACAAAGAAAAUCUGGGCCAGGCAGGCAUCAAAGGAAAUAGUCUUGCGCUCAACCAGAUAGUCUGUAAUCAUUUUAAGGGUA [A92G A117U] | 0.8
15 | GUUAACGGUCAUAGGCCAUGGAAACUAGGAGCACCAUUUCGCUGCCAGUGAAGAAAUGAACAAAGAAAAUCUGGGCCAGGCAGGCAUCAAAGGAAAUAGUCUUGCGCUCAACCAGAGAGUCUGUAAUCAUUUUAAGGGUA [A92G A117G] | 1.47
16 | GUUAACGGUCAUAGGCCAUGGAAACUAGGAGCACCAUUUCGCUGCCAGUGAAGAAAUGAACAAAGAAAAUCUGGGCCAGGCAGGCAUCAAACGAAAUAGUAUUGCGCUCAACCAGAAAGUCUGUAAUCAUUUUAAGGGUA [A92C C101A] | 0.13
17 | GUUAACGGUCAUAGGCCAUGGAAACUAGGAGCACCAUUUCGCUGCCAGUGAAGAAAUGAACAAAGAAAAUCUGGGCCAGGCAGGCAUCAAACGAAAUAGUCUUGCGCUCAACCAGAAAGUCUGUAAUCGUUUUAAGGGUA [A92C A129G] | 1.66
18 | GUUAACGGUCAUAGGCCAUGGAAACUAGGAGCACCAUUUCGCUGCCAGUGAAGAAAUGAACAAAGAAAAUCUGGGCCAGGCAGGCAUCAAAGGAAAUGGUCUUGCGCUCAACCAGAAAGUCUGUAAUCAUUUUAAGGGUA [A92G A98G] | 0.74
19 | GUUAACGGUCAUAGGCCAUGGAAACUAGGAGCACCAUUUCGCUGCCAGUGAAGAAAUGAACAAAGAAAAUCUGGGCCAGGCAGGCAUCAAAGGAAAUAGUCUUGCGCUCAACCAGAAAGCCUGUAAUCAUUUUAAGGGUA [A92G U120C] | 0.64
20 | GUUAACGGUCAUAGGCCAUGGAAACUAGGAGCACCAUUUCGCUGCCAGUGAAGAAAUGAACAAAGAAAAUCUGGGCCAGGCAGGCAUCAAAGGAAAUAGUCUUGCGCUCAACCAGAAAGUCUGUACUCAUUUUAAGGGUA [A92G A126C] | 0.94
21 | GUUAACGGUCAUAGGCCAUGGAAACUAGGAGCACCAUUUCGCUGCCAGUGAAGAAAUGAACAAAGAAAAUCUGGGCCAGGCAGGCAUCAAAGGAAAUAGCCUUGCGCUCAACCAGAAAGUCUGUAAUCAUUUUAAGGGUA [A92G U100C] | 1.84

Row | Variant | self-cleavage
22 | GUUAACGGUCAUAGGCCAUGGAAACUAGGAGCACCAUUUCGCUGCCAGUGAAGAAAUGAACAAAGAAAAUCUGGGCCAGGCAGGCAUCAAAGGAAAUAGUCUUGCGCUCAACCAGAAAGUCGGUAAUCAUUUUAAGGGUA [A92G U122G] | 2.31
23 | GUUAACGGUCAUAGGCCAUGGAAACUAGGAGCACCAUUUCGCUGCCAGUGAAGAAAUGAACAAAGAAAAUCUGGGCCAGGCAGGCAUCAAAGGAAAUAGUCUUGCGCUCAACCAGAAAGUCAGUAAUCAUUUUAAGGGUA [A92G U122A] | 1.96
24 | GUUAACGGUCAUAGGCCAUGGAAACUAGGAGCACCAUUUCGCUGCCAGUGAAGAAAUGAACAAAGAAAAUCUGGGCCAGGCAGGCAUCAAAGGAAAUAGUCUUGCGCUCAACCGGAAAGUCUGUAAUCAUUUUAAGGGUA [A92G A114G] | 0.29
25 | GUUAACGGUCAUAGGCCAUGGAAACUAGGAGCACCAUUUCGCUGCCAGUGAAGAAAUGAACAAAGAAAAUCUGGGCCAGGCAGGCAUCAAAGGAAAUAGUCUUGCGCUCAACCUGAAAGUCUGUAAUCAUUUUAAGGGUA [A92G A114U] | 0.02
26 | GUUAACGGUCAUAGGCCAUGGAAACUAGGAGCACCAUUUCGCUGCCAGUGAAGAAAUGAACAAAGAAAAUCUGGGCCAGGCAGGCAUCAAAGGAAAUAGUCAUGCGCUCAACCAGAAAGUCUGUAAUCAUUUUAAGGGUA [A92G U102A] | 0.61
27 | GUUAACGGUCAUAGGCCAUGGAAACUAGGAGCACCAUUUCGCUGCCAGUGAAGAAAUGAACAAAGAAAAUCUGGGCCAGGCAGGCAUCAAAGGAAAUAGUCCUGCGCUCAACCAGAAAGUCUGUAAUCAUUUUAAGGGUA [A92G U102C] | 1.8
28 | GUUAACGGUCAUAGGCCAUGGAAACUAGGAGCACCAUUUCGCUGCCAGUGAAGAAAUGAACAAAGAAAAUCUGGGCCAGGCAGGCAUCAAAGGAAAUAGUCGUGCGCUCAACCAGAAAGUCUGUAAUCAUUUUAAGGGUA [A92G U102G] | 0.61
29 | GUUAACGGUCAUAGGCCAUGGAAACUAGGAGCACCAUUUCGCUGCCAGUGAAGAAAUGAACAAAGAAAAUCUGGGCCAGGCAGGCAUCAAAGGAAAUAGUCUUGCGCUCAACCAGAAAGUCUGUCAUCAUUUUAAGGGUA [A92G A125C] | 1.44
30 | GUUAACGGUCAUAGGCCAUGGAAACUAGGAGCACCAUUUCGCUGCCAGUGAAGAAAUGAACAAAGAAAAUCUGGGCCAGGCAGGCAUCAAAGGAAAUAGUCUUGCGCCCAACCAGAAAGUCUGUAAUCAUUUUAAGGGUA [A92G U108C] | 0.01
31 | GUUAACGGUCAUAGGCCAUGGAAACUAGGAGCACCAUUUCGCUGCCAGUGAAGAAAUGAACAAAGAAAAUCUGGGCCAGGCAGGCAUCAAAGGAAAUAGUCUUGCGCACAACCAGAAAGUCUGUAAUCAUUUUAAGGGUA [A92G U108A] | 0.03
32 | GUUAACGGUCAUAGGCCAUGGAAACUAGGAGCACCAUUUCGCUGCCAGUGAAGAAAUGAACAAAGAAAAUCUGGGCCAGGCAGGCAUCAAAGGAAACAGUCUUGCGCUCAACCAGAAAGUCUGUAAUCAUUUUAAGGGUA [A92G U97C] | 1.57
33 | GUUAACGGUCAUAGGCCAUGGAAACUAGGAGCACCAUUUCGCUGCCAGUGAAGAAAUGAACAAAGAAAAUCUGGGCCAGGCAGGCAUCAAAGGAAAUAGUCUUGCGCUUAACCAGAAAGUCUGUAAUCAUUUUAAGGGUA [A92G C109U] | 0.59
34 | GUUAACGGUCAUAGGCCAUGGAAACUAGGAGCACCAUUUCGCUGCCAGUGAAGAAAUGAACAAAGAAAAUCUGGGCCAGGCAGGCAUCAAACGAAGUAGUCUUGCGCUCAACCAGAAAGUCUGUAAUCAUUUUAAGGGUA [A92C A96G] | 1.73
35 | GUUAACGGUCAUAGGCCAUGGAAACUAGGAGCACCAUUUCGCUGCCAGUGAAGAAAUGAACAAAGAAAAUCUGGGCCAGGCAGGCAUCAAAGGAAAUAGUCUUGCGCUCAACCAGAAAAUCUGUAAUCAUUUUAAGGGUA [A92G G119A] | 2.3
36 | GUUAACGGUCAUAGGCCAUGGAAACUAGGAGCACCAUUUCGCUGCCAGUGAAGAAAUGAACAAAGAAAAUCUGGGCCAGGCAGGCAUCAAUAGAAAUAGUCUUGCGCUCAACCAGAAAGUCUGUAAUCAUUCUAAGGGUA [A91U U132C] | 1.62
37 | GUUAACGGUCAUAGGCCAUGGAAACUAGGAGCACCAUUUCGCUGCCAGUGAAGAAAUGAACAAAGAAAAUCUGGGCCAGGCAGGCAUCAAAGGAAAUAGUUUUGCGCUCAACCAGAAAGUCUGUAAUCAUUUUAAGGGUA [A92G C101U] | 0.12
38 | GUUAACGGUCAUAGGCCAUGGAAACUAGGAGCACCAUUUCGCUGCCAGUGAAGAAAUGAACAAAGAAAAUCUGGGCCAGGCAGGCAUCAAAGGAAAUAGUCUUGCGCUCAACCAGAAAGUCUGUAAUCGUUUUAAGGGUA [A92G A129G] | 0.74
39 | GUUAACGGUCAUAGGCCAUGGAAACUAGGAGCACCAUUUCGCUGCCAGUGAAGAAAUGAACAAAGAAAAUCUGGGCCAGGCAGGCAUCAAAGGAAAUAGUCUUGCGCUCAACCAGAAAGUCUGUAAUCAUUUUAUGGGUA [A92G A135U] | 2.03
40 | GUUAACGGUCAUAGGCCAUGGAAACUAGGAGCACCAUUUCGCUGCCAGUGAAGAAAUGAACAAAGAAAAUCUGGGCCAGGCAGGCAUCAAACGAAAUAGUCUUGCGCUCAACCAGAAAGUCUGUAAUCAUUCUAAGGGUA [A92C U132C] | 1.05
41 | GUUAACGGUCAUAGGCCAUGGAAACUAGGAGCACCAUUUCGCUGCCAGUGAAGAAAUGAACAAAGAAAAUCUGGGCCAGGCAGGCAUCAAAGGAAAUAGUCUUGCGCUCAACCAGAAAGUCUAUAAUCAUUUUAAGGGUA [A92G G123A] | 2.51
